Data from PMC6440994, “Human RAD51 paralogue SWSAP1 fosters RAD51 filament by regulating the anti-recombinase FIGNL1 AAA+ ATPase” (Nature Communications, 2019).

Target: T1, RAD51 (protein of the in vitro assays) (UniProt Q06609 1-339)
T1 sequence (looked up): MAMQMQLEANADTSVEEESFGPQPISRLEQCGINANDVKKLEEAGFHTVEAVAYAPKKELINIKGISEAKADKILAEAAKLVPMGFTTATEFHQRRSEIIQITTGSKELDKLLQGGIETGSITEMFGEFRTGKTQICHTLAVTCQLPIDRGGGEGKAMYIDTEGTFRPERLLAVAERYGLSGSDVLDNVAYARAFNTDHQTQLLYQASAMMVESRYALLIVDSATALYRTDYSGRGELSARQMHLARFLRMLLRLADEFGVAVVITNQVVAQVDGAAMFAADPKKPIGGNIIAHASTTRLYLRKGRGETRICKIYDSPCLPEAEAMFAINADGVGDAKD
Test: cell-based or functional assay

activity to dissociate RAD51 from ssDNA relative to wild-type FIGNL1ΔN (0.2 µM protein): 3.2 fold decrease
B1: FIGNL1ΔN-EE (F295E, A298E) (domain or fragment, human, UniProt Q6PIW4 285-674, looked up)
chain: GPKEDSSLPTEKTEKEQLWVDQQKKYHQPQRASGSSYGGVKKSLGASRSRGILGKFVPPIPKQDGGEQNGGMQCKPYGAGPTEPAHPVDERLKNLEPKMIELIMNEIMDHGPPVNWEDIAGVEFAKATIKEIVVWPMLRPDIFTGLRGPPKGILLFGPPGTGKTLIGKCIASQSGATFFSISASSLTSKWVGEGEKMVRALFAVARCQQPAVIFIDEIDSLLSQRGDGEHESSRRIKTEFLVQLDGATTSSEDRILVVGATNRPQEIDEAARRRLVKRLYIPLPEASARKQIVINLMSKEQCCLSEEEIEQIVQQSDAFSGADMTQLCREASLGPIRSLQTADIATITPDQVRPIAYIDFENAFRTVRPSVSPKDLELYENWNKTFGCGK
